From IntAct's records for PubMed 28572511

B1: Lysosomal cobalamin transporter ABCD4 (Homo sapiens), O14678 (parent)
chain: MAVAGPAPGAGARPRLDLQFLQRFLQILKVLFPSWSSQNALMFLTLLCLTLLEQFVIYQVGLIPSQYYGVLGNKDLEGFKTLTFLAVMLIVLNSTLKSFDQFTCNLLYVSWRKDLTEHLHRLYFRGRAYYTLNVLRDDIDNPDQRISQDVERFCRQLSSMASKLIISPFTLVYYTYQCFQSTGWLGPVSIFGYFILGTVVNKTLMGPIVMKLVHQEKLEGDFRFKHMQIRVNAEPAAFYRAGHVEHMRTDRRLQRLLQTQRELMSKELWLYIGINTFDYLGSILSYVVIAIPIFSGVYGDLSPAELSTLVSKNAFVCIYLISCFTQLIDLSTTLSDVAGYTHRIGQLRETLLDMSLKSQDCEILGESEWGLDTPPGWPAAEPADTAFLLERVSISAPSSDKPLIKDLSLKISEGQSLLITGNTGTGKTSLLRVLGGLWTSTRGSVQMLTDFGPHGVLFLPQKPFFTDGTLREQVIYPLKEVYPDSGSADDERILRFLELAGLSNLVARTEGLDQQVDWNWYDVLSPGEMQRLSFARLFYLQPKYAVLDEATSALTEEVESELYRIGQQLGMTFISVGHRQSLEKFHSLVLKLCGGGRWELMRIKVE
partner: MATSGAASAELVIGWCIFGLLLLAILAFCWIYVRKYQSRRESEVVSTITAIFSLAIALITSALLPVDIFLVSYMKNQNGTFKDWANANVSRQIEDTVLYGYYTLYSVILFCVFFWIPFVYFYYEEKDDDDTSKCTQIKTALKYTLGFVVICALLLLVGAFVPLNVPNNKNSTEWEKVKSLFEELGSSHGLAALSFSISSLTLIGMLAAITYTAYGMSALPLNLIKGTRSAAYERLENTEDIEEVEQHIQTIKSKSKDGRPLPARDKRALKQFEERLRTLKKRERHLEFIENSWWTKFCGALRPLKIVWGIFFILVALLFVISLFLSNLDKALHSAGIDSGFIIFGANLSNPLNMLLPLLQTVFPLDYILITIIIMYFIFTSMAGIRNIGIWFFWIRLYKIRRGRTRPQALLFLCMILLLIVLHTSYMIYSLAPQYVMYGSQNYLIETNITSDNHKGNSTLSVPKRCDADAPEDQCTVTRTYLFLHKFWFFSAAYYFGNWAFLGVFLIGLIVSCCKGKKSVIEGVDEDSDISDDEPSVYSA
B2: Lysosomal cobalamin transport escort protein LMBD1 (Homo sapiens), Q9NUN5 (parent)
chain: B1 partner
partner: B1 chain

Variants of: B1
Settings: with lmbd1_human LMBRD1, Q9NUN5

Row | effect of a mutation on the interaction | Variant
1 | decreasing interaction strength | K427L
2 | decreasing interaction strength | R432Q
3 | decreasing interaction strength | D548N

More lines, now with the values behind:

Row | Variant | effect of a mutation on the interaction
4 | N141K | decreasing interaction strength
5 | G426A | decreasing interaction strength
6 | G426A;K427L | disrupting interaction strength

Variants of: B1
Settings: with lmbd1_human LMBRD1, Q9NUN5
Remark: another data set of the same source

Row | Variant | effect of a mutation on the interaction
7 | G426A;K427L | decreasing interaction strength

Variants of: B2
Settings: with abcd4_human ABCD4, O14678

Row | Variant | effect of a mutation on the interaction
8 | Y232A | decreasing interaction strength
